Measured values from PMC5566995, “Development and Characterization of a Camelid Single Domain Antibody–Urease Conjugate That Targets Vascular Endothelial Growth Factor Receptor 2” (Frontiers in Immunology, 2017).

Experiments:
V21H4-DOS47 = target: T1, V21H4-DOS47 (llama | jack bean (Canavalia ensiformis)); assay: ELISA; VEGFR/Fc (0.25 ug/mL) captured on plates coated with goat anti-human IgG-Fc; dilutions of antibody-urease conjugate or biotinylated antibody in 0.1% BSA/T-TBS, room temperature, 2 h; conjugates detected with rabbit anti-urease and goat anti-rabbit-AP, biotinylated antibody with streptavidin-alkaline phosphatase; A405; conditions: both partners purified
T1 construct: as the chain of m1; residues 1-127 of V21H4; urease, jack bean (Canavalia ensiformis), homohexamer, purified from crude urease; Antibody-urease conjugate; the standard method gives 8.7-9.2; also called V21-DOS47; V21H4-DOS47 (8.8 antibodies/urease); source: conjugate purified by diafiltration; copies: 8.8 + 6

[1] = target: T2, VEGFR2 expressed by 293/KDR cells (Homo sapiens (assumed; KDR), UniProt P35968); assay: flow cytometry on cells; 293/KDR cells incubated with conjugate or biotinylated antibody in staining buffer (PBS with Ca2+ and Mg2+, 0.02% NaN3, 2% FBS) at 2-8 C for 1 h; conjugates detected with mouse anti-urease and AF488-anti-mouse IgG, biotinylated antibody with PE-SA; signal as ratio to 293 cells or to a biotin-isotype control; conditions: one partner purified
T2 construct: vascular endothelial growth factor receptor 2 (VEGFR2, KDR) expressed on 293/KDR cells; source: 293/KDR cells, on the cell surface

recombinant VEGFR2/Fc = target: T3, recombinant VEGFR2/Fc (Homo sapiens (assumed), UniProt P35968); assay: ELISA; VEGFR/Fc (0.25 ug/mL) captured on plates coated with goat anti-human IgG-Fc; dilutions of antibody-urease conjugate or biotinylated antibody in 0.1% BSA/T-TBS, room temperature, 2 h; conjugates detected with rabbit anti-urease and goat anti-rabbit-AP, biotinylated antibody with streptavidin-alkaline phosphatase; A405; conditions: both partners purified
T3 construct: vascular endothelial growth factor receptor 2 (VEGFR2), recombinant Fc fusion protein; Fc fusions of this supplier usually hold the extracellular domain (surmise); also called vascular endothelial growth factor receptor 2 Fc fusion; source: bought: R&D Systems
T3 sequence (P35968 20-764): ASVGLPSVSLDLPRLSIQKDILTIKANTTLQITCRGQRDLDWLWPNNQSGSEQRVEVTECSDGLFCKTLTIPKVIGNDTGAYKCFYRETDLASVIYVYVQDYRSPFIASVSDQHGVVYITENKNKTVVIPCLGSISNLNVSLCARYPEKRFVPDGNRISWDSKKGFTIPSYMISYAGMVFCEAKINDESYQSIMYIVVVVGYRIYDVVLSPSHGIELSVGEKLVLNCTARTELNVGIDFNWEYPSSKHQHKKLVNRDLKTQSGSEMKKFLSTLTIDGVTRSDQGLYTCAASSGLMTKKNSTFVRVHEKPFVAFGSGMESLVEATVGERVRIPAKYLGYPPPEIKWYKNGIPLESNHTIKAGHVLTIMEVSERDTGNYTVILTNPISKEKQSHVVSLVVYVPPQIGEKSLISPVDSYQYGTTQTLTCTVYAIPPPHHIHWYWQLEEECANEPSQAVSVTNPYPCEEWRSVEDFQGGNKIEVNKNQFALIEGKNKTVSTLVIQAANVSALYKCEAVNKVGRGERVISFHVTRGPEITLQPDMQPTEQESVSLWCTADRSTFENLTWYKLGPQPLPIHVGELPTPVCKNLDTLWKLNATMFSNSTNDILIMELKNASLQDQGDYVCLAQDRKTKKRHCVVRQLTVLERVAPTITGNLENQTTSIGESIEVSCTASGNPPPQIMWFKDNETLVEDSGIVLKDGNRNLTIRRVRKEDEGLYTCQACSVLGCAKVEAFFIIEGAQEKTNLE

T2 sequence (P35968 20-1356): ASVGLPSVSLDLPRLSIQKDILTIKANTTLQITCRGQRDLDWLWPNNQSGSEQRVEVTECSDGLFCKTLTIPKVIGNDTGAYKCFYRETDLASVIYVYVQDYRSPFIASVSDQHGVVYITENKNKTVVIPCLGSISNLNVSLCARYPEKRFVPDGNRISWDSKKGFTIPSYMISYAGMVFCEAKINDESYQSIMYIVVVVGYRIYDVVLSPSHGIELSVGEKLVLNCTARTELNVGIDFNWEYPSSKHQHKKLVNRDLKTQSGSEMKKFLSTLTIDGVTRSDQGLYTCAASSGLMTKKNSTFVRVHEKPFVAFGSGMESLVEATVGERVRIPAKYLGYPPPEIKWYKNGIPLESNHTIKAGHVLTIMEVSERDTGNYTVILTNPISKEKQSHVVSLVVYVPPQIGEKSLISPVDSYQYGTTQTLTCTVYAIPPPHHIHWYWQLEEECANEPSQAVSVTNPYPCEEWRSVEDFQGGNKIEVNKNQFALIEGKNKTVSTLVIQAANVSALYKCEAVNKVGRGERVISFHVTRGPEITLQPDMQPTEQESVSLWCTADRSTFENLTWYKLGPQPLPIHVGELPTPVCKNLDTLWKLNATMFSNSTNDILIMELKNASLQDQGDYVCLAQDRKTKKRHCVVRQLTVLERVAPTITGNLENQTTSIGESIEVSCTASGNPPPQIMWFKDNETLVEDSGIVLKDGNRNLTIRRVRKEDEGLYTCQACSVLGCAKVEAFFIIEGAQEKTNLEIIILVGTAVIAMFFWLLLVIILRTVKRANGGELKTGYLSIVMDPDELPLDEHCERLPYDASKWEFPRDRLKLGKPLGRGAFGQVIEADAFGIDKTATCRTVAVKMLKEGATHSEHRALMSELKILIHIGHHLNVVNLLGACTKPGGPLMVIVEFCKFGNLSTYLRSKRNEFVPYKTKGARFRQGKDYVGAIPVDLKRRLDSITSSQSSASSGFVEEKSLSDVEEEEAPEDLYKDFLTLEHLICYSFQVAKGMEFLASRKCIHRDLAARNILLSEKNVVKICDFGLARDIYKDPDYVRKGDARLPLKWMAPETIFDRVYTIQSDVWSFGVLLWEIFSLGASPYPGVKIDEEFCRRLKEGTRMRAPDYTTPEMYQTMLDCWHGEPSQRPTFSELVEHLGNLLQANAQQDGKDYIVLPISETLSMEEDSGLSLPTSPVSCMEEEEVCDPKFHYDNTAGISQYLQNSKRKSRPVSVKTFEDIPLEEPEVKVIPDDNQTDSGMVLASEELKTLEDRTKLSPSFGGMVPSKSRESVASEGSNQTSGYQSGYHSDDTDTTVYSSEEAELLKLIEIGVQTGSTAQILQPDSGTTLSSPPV

B1: VEGFR1/Fc (Fc fusion, UniProt P17948 27-758, looked up)
chain: SKLKDPELSLKGTQHIMQAGQTLHLQCRGEAAHKWSLPEMVSKESERLSITKSACGRNGKQFCSTLTLNTAQANHTGFYSCKYLAVPTSKKKETESAIYIFISDTGRPFVEMYSEIPEIIHMTEGRELVIPCRVTSPNITVTLKKFPLDTLIPDGKRIIWDSRKGFIISNATYKEIGLLTCEATVNGHLYKTNYLTHRQTNTIIDVQISTPRPVKLLRGHTLVLNCTATTPLNTRVQMTWSYPDEKNKRASVRRRIDQSNSHANIFYSVLTIDKMQNKDKGLYTCRVRSGPSFKSVNTSVHIYDKAFITVKHRKQQVLETVAGKRSYRLSMKVKAFPSPEVVWLKDGLPATEKSARYLTRGYSLIIKDVTEEDAGNYTILLSIKQSNVFKNLTATLIVNVKPQIYEKAVSSFPDPALYPLGSRQILTCTAYGIPQPTIKWFWHPCNHNHSEARCDFCSNNEESFILDADSNMGNRIESITQRMAIIEGKNKMASTLVVADSRISGIYICIASNKVGTVGRNISFYITDVPNGFHVNLEKMPTEGEDLKLSCTVNKFLYRDVTWILLRTVNNRTMHYSISKQKMAITKEHSITLNLTIMNVSLQDSGTYACRARNVYTGEEILQKKEITIRDQEAPYLLRNLSDHTVAISSSTTLDCHANGVPEPQITWFKNNHKIQQEPGIILGPGSSTLFIERVTEEDEGVYHCKATNQKGSVESSAYLTVQGTSDKSNLE
notes: vascular endothelial growth factor receptor 1 (VEGFR1), recombinant Fc fusion protein; also called recombinant Fc fusion protein of VEGFR1; source: bought: R&D Systems
B1: no binding (V21H4-DOS47).

B2: biotin-V21H4 (VHH)
VHH: QVQLVESGGGLVQAGGSLRLSCAASGRAFSSYAMGWFRQAPGKERELVAAISWSDDSTYYANSVKGRFTISRDNAKSAVYLQMNSLKPEDTAVYYCAAHKSLQRPDEYTYWGQGTQVTVSS
notes: residues 1-127: V21 core (122 residues, ending at S122) and the first of the added C-terminal residues G123-C136; C136 is the added terminal cysteine; 136 residues in all; also called V21H4 antibody; biotinylated V21H4
B2 gave an EC50 [1] of 1.6 nM and an EC50 (recombinant VEGFR2/Fc) of 1.8 nM.
